Experimental data reported in PMC10878280 (Journal of Virology, 2024).

Target: T1, hemagglutinin (HA) of A/WSN/1933, on transfected HEK-293T cells (Influenza A virus A/WSN/1933 (H1N1), UniProt P03454)
T1 construct: source: HEK-293T, transfected with HA-expressing plasmid, on cells
Assay: fluorescence imaging with FRAP of labelled antibody on transfected cells
Settings: one partner purified

Binder | binding result
FI6v3 IgG (antibody, V domains shown, not shown: ybbR, C-terminal, kept; copies: 2 + 2) VH: QVQLVESGGGVVQPGRSLRLSCAASGFTFSTYAMHWVRQAPGKGLEWVAVISYDANYKYYADSVKGRFTISRDNSKNTLYLQMNSLRAEDTAVYYCAKDSQLRSLLYFEWLSQGYFDYWGQGTLVTVSS VL: not shown | binds
S139\1 IgG (antibody, V domains shown, not shown: ybbR, C-terminal, kept; copies: 2 + 2) VH: QVQLQQSGTELKKPGASVKISCKATGYTFSSYWIEWIKQRPGHGLEWIGEILPEIGMTNYNENFKGKATFTANTSSNTVYMQLSSLTSEDSAVYYCARPYDYSWFAYWGQGTLVTVSA VL: DIVMTQSQKFMSTSVGDRVSVTCKASQNVDTNVAWYQEKPGQSPKTLIYSASNRYSGVPDRFTGSASGTDFTLTITNVQSEDLAEYFCQQYNSYPYTFGGGTKLEIK | binds
C05 IgG (antibody, V domains shown, not shown: ybbR, C-terminal, kept; copies: 2 + 2) VH: QVQLQESGGGLVQPGESLRLSCVGSGSSFGESTLSYYAVSWVRQAPGKGLEWLSIINAGGGDIDYADSVEGRFTISRDNSKETLYLQMTNLRVEDTGVYYCAKHMSMQQVVSAGWERADLVGDAFDVWGQGTMVTVSS VL: DIQLTQSPSSLSASVGDRVTLTCQASQDIRKFLNWYQQKPGKGPKLLIYDASNLQRGVPSRFSGGGSGTDFTLIISSLQPEDVGTYYCQQYDGLPFTFGGGTKVVIK | binds
